Laboratory results: the supplement of paper PMC6757056
± gives the standard deviation of the averaged measurements.

B1: library; a variant is named by its letters at N, in order (parent)
chain: GCUGUCACCGGUGCUUGGUACGUUAUAUUCAGCCGGUCUGAUGAGUCUNNNNNNAGACGAAACAGC

Key:
(6R,S)-folinic acid [1] = variants of: B1; test: FACS-Seq fitted mean relative fluorescence mCherry/BFP without ligand (log10 relative fluorescence); HEK293T overexpressing SLC46A1; higher = higher reporter protein expression; settings: without (6R,S)-folinic acid; ligand present: no
Method: (§1)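 Hammerhead (sTRSV) ribozyme switch libraries with a ligand aptamer grafted on stem I and a randomized N4-6 loop II, cloned into the 3' UTR of mCherry and transiently transfected into HEK293T cells; RNA-Seq 72 h post transfection with ligand added 1 h before transfection; RNA read count / plasmid DNA read count normalized to the non-cleaving sTRSVctl (x100), log10; sequences with >100 DNA reads. FACS-Seq: lentiviral library sorted into 6 bins after 48 h ligand, log-normal fit mean of mCherry/BFP scaled to controls. Printed sequences are partial switch sequences.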

(6R,S)-folinic acid [2] = variants of: B1; test: normalized RNA/DNA level without ligand (relative to sTRSVctl = 100) (log10 (% of sTRSVctl)); HEK293T overexpressing SLC46A1; higher = less ribozyme self-cleavage, higher mRNA level; settings: without (6R,S)-folinic acid; ligand present: no
Method: as §1

(6R,S)-folinic acid [3] = variants of: B1; test: FACS-Seq fitted mean relative fluorescence mCherry/BFP with ligand (log10 relative fluorescence); HEK293T overexpressing SLC46A1; ligand concentration (+) FACS-Seq: 6 mM; higher = higher reporter protein expression; settings: with (6R,S)-folinic acid; ligand present: yes
Method: as §1

(6R,S)-folinic acid [4] = variants of: B1; test: normalized RNA/DNA level with ligand (relative to sTRSVctl = 100) (log10 (% of sTRSVctl)); HEK293T overexpressing SLC46A1; ligand concentration (+) RNA-Seq: 6 mM; higher = less ribozyme self-cleavage, higher mRNA level; settings: with (6R,S)-folinic acid; ligand present: yes
Method: as §1

Variant | FACS-Seq fitted mean (log10) ((6R,S)-folinic acid [1]) | normalized RNA/DNA level without ligand (log10) ((6R,S)-folinic acid [2]) | FACS-Seq fitted mean (log10) ((6R,S)-folinic acid [3]) | normalized RNA/DNA level with ligand (log10) ((6R,S)-folinic acid [4])
GCUGUCACCGGUGCUUGGUACGUUAUAUUCAGCCGGUCUGAUGAGUCUGAAAGAAGACGAAACAGC [GAAAGA] | 0.353 ± 0.015 | 2.011 ± 0.011 | 0.607 ± 0.25 | 2.04 ± 0.024
GCUGUCACCGGUGCUUGGUACGUUAUAUUCAGCCGGUCUGAUGAGUCUAAAAAGAGACGAAACAGC [AAAAAG] | 0.431 ± 0.18 | 1.914 ± 0.0037 | 0.605 ± 0.12 | 2 ± 0.045
GCUGUCACCGGUGCUUGGUACGUUAUAUUCAGCCGGUCUGAUGAGUCUAAAAACAGACGAAACAGC [AAAAAC] | 0.164 ± 0.051 | 1.985 ± 0.015 | -0.16 ± 0.076 | 1.99 ± 0.034
GCUGUCACCGGUGCUUGGUACGUUAUAUUCAGCCGGUCUGAUGAGUCUAAAAAUAGACGAAACAGC [AAAAAU] | 0.39 ± 0.039 | 1.944 ± 0.011 | 0.512 ± 0.13 | 1.99 ± 0.029
GCUGUCACCGGUGCUUGGUACGUUAUAUUCAGCCGGUCUGAUGAGUCUAAAAAAAGACGAAACAGC [AAAAAA] | 0.489 ± 0.019 | 1.948 ± 0.013 | 0.43 ± 0.029 | 1.97 ± 0.036
GCUGUCACCGGUGCUUGGUACGUUAUAUUCAGCCGGUCUGAUGAGUCUGAAACUAGACGAAACAGC [GAAACU] | 0.175 ± 0.071 | 2.004 ± 0.0055 | 0.437 ± 0.016 | 2.001 ± 0.019
GCUGUCACCGGUGCUUGGUACGUUAUAUUCAGCCGGUCUGAUGAGUCUUAAAAUAGACGAAACAGC [UAAAAU] | 0.0871 ± 0.034 | 1.941 ± 0.016 | 0.075 ± 0.078 | 1.97 ± 0.036
GCUGUCACCGGUGCUUGGUACGUUAUAUUCAGCCGGUCUGAUGAGUCUUAAAAAAGACGAAACAGC [UAAAAA] | 0.254 ± 0.059 | 1.9232 ± 0.0015 | 0.164 ± 0.11 | 1.98 ± 0.024
GCUGUCACCGGUGCUUGGUACGUUAUAUUCAGCCGGUCUGAUGAGUCUUAAAACAGACGAAACAGC [UAAAAC] | 0.386 ± 0.024 | 1.973 ± 0.0055 | 0.499 ± 0.15 | 1.98 ± 0.028
GCUGUCACCGGUGCUUGGUACGUUAUAUUCAGCCGGUCUGAUGAGUCUUAAAAGAGACGAAACAGC [UAAAAG] | 0.335 ± 0.03 | 1.7583 ± 0.00058 | 0.493 ± 0.023 | 1.96 ± 0.049
GCUGUCACCGGUGCUUGGUACGUUAUAUUCAGCCGGUCUGAUGAGUCUGAAAAGAGACGAAACAGC [GAAAAG] | 0.162 ± 0.24 | 1.94 ± 0.0028 | -0.223 ± 0.13 | 2 ± 0.032
GCUGUCACCGGUGCUUGGUACGUUAUAUUCAGCCGGUCUGAUGAGUCUGAAAACAGACGAAACAGC [GAAAAC] | 0.181 ± 0.013 | 1.948 ± 0.0025 | 0.078 ± 0.11 | 1.98 ± 0.034
GCUGUCACCGGUGCUUGGUACGUUAUAUUCAGCCGGUCUGAUGAGUCUGAAAAUAGACGAAACAGC [GAAAAU] | 0.553 ± 0.091 | 1.9868 ± 0.0018 | 0.647 ± 0.21 | 2.02 ± 0.022
GCUGUCACCGGUGCUUGGUACGUUAUAUUCAGCCGGUCUGAUGAGUCUCAAACUAGACGAAACAGC [CAAACU] | 0.433 ± 0.064 | 2.01 ± 0.027 | 0.667 ± 0.16 | 2.01 ± 0.029
GCUGUCACCGGUGCUUGGUACGUUAUAUUCAGCCGGUCUGAUGAGUCUCAAACCAGACGAAACAGC [CAAACC] | 0.546 ± 0.013 | 2.024 ± 0.0088 | 0.377 ± 0.2 | 2.02 ± 0.038
GCUGUCACCGGUGCUUGGUACGUUAUAUUCAGCCGGUCUGAUGAGUCUAAAACUAGACGAAACAGC [AAAACU] | 0.355 ± 0.07 | 2.024 ± 0.00081 | 0.358 ± 0.15 | 2.03 ± 0.035
GCUGUCACCGGUGCUUGGUACGUUAUAUUCAGCCGGUCUGAUGAGUCUAAAACGAGACGAAACAGC [AAAACG] | 0.631 ± 0.022 | 1.93 ± 0.0068 | 0.582 ± 0.16 | 1.99 ± 0.015
GCUGUCACCGGUGCUUGGUACGUUAUAUUCAGCCGGUCUGAUGAGUCUAAAACAAGACGAAACAGC [AAAACA] | 0.359 ± 0.036 | 1.988 ± 0.0088 | 0.304 ± 0.0079 | 2 ± 0.024
GCUGUCACCGGUGCUUGGUACGUUAUAUUCAGCCGGUCUGAUGAGUCUUAAACGAGACGAAACAGC [UAAACG] | 0.324 ± 0.13 | 1.799 ± 0.016 | 0.717 ± 0.1 | 1.95 ± 0.032
GCUGUCACCGGUGCUUGGUACGUUAUAUUCAGCCGGUCUGAUGAGUCUCAAAACAGACGAAACAGC [CAAAAC] | 0.474 ± 0.076 | 1.9999 ± 0.0015 | 0.589 ± 0.49 | 1.99 ± 0.055
GCUGUCACCGGUGCUUGGUACGUUAUAUUCAGCCGGUCUGAUGAGUCUCAAAAUAGACGAAACAGC [CAAAAU] | -0.131 ± 0.018 | 1.955 ± 0.0057 | -0.505 ± 0.1 | 1.98 ± 0.032
